US20220315655A1 (NOVIMMUNE, published 2022)

T1: recombinant mouse CD47 soluble protein (mouse, UniProt Q61735 19-140, limits assumed)
T1 sequence (looked up): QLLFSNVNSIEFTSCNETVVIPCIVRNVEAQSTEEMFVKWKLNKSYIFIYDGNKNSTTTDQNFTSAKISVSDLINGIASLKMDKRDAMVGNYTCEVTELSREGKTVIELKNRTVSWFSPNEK

B1: S79 anti-PD-L1 mAb (antibody, human IgG4 S228P, lambda, V domains shown)
VH: not shown
VL: QSALTQPASVSGSPGQSITISCTGTSSDVFRPPLVSWYQQHPGKAPKLMIYFASLRPSGVSNRFSGSKSGNTASLTISGLQAEDEADYYCSSWDHTGDGHVFGGGTKLTVLG
notes: Bivalent monospecific anti-PD-L1 antibody with the common heavy chain and the S79 lambda light chain; also called S79 mAb; S79_Sc3_1G7_VLCL2 aPDL1 IGLV2-23
B2: K38xS28 CD47xPD-L1 bispecific antibody (bispecific antibody, human IgG4 S228P, kappa, lambda)
heavy: not shown
light 1: DIQMTQSPSSLSASVGDRVTITCRASQVIANWLNWYQQKPGKAPKLLIYAGSHLQSGVPSRFSGSGSGTDFTLTISSLQPEDFATYYCQQMHPRAPKTFGQGTKVEIKRTVAAPSVFIFPPSDEQLKSGTASVVCLLNNFYPREAKVQWKVDNALQSGNSQESVTEQDSKDSTYSLSSTLTLSKADYEKHKVYACEVTHQGLSSPVTKSFNRGEC
light 2: not shown
notes: also called K38xS28 bsAb
B3: K33xS79 CD47xPD-L1 bispecific antibody (bispecific antibody, human IgG4 S228P, kappa, lambda)
heavy: not shown
light 1: DIQMTQSPSSLSASVGDRVTITCRASQSISSYLNWYQQKPGKAPKLLIYAASSLQSGVPSRFSGSGSGTDFTLTISSLQPEDFATYYCQQFHKRSPQKFGQGTKVEIKRTVAAPSVFIFPPSDEQLKSGTASVVCLLNNFYPREAKVQWKVDNALQSGNSQESVTEQDSKDSTYSLSSTLTLSKADYEKHKVYACEVTHQGLSSPVTKSFNRGEC
light 2: QSALTQPASVSGSPGQSITISCTGTSSDVFRPPLVSWYQQHPGKAPKLMIYFASLRPSGVSNRFSGSKSGNTASLTISGLQAEDEADYYCSSWDHTGDGHVFGGGTKLTVLGQPKAAPSVTLFPPSSEELQANKATLVCLISDFYPGAVTVAWKADSSPVKAGVETTTPSKQSNNKYAASSYLSLTPEQWKSHRSYSCQVTHEGSTVEKTVAPTECS
notes: also called K33xS79 bsAb
B4: K106xS79 CD47xPD-L1 bispecific antibody (bispecific antibody, human IgG4 S228P, kappa, lambda)
heavy: not shown
light 1: not shown
light 2: B3 light 2
notes: also called K106xS79 bsAb
B5: K38xS79 CD47xPD-L1 bispecific antibody (bispecific antibody, human IgG4 S228P, kappa, lambda)
heavy: not shown
light 1: B2 light 1
light 2: B3 light 2
notes: also called K38xS79 bsAb; K38S79

Columns and labels:
[1] = molecular target: T2, human PD-L1 on cells (hPD-L1-transfected CHO cells; IFNg-induced HT-1080 tumor cells) (human, UniProt Q9NZQ7 19-290); experiment: cell-based competition: hPD-1-moFc binding to IFNg-induced PD-L1+CD47+ HT-1080 cells, CellInsight imaging
T2 construct: whole, on cells; The CHO transfectants are negative for human CD47; HT-1080 cells also carry CD47; also called PD-L1+CD47+ HT-1080

[2] = molecular target: T1, recombinant mouse CD47 soluble protein; experiment: statement in the xenograft example; assay not named
[3] = molecular target: T3, recombinant mouse PD-L1 soluble protein (mouse, UniProt Q9EP73 19-238, limits assumed, biotinylated); experiment: as above
T3 construct: ELISA and BLI used proteins from different sources; They are kept as one molecule because no limits are stated

[4] = molecular target: T4, recombinant human CD47 soluble protein (human, UniProt Q08722 19-139); experiment: BLI (OctetRED96), His-tag CD47 on HIS1K biosensors, bsAb in solution, 1:1 global fit, 30 C
T4 construct: ELISA and BLI used different preparations; They are kept as one molecule because no limits are stated; also called His-tag human CD47

[5] = molecular target: T5, recombinant human PD-L1 soluble protein (human, UniProt Q9NZQ7 19-238, biotinylated); experiment: BLI (OctetRED96), biotinylated PD-L1 on streptavidin biosensors, bsAb in solution, 1:1 global fit, 30 C
T5 construct: Bought soluble protein; also called hPD-L1; B7-H1

[6] = molecular target: T3, recombinant mouse PD-L1 soluble protein; experiment: as above
[7] = molecular target: T6, recombinant cynomolgus monkey PD-L1 soluble protein (cynomolgus monkey, UniProt G7PSE7 19-238, biotinylated); experiment: as above
T6 construct: ELISA and BLI used proteins from different suppliers; They are kept as one molecule because no limits are stated; also called cyno PD-L1; cynomolgus PD-L1

[8] = molecular target: human CD47 on cells (Raji, Nalm-6, HT-1080 tumor cells; human red blood cells) (human, UniProt Q08722 19-323); experiment: cell-based or functional assay
[9] = molecular target: T7, recombinant cynomolgus monkey CD47 soluble protein (cynomolgus monkey, UniProt A0A2K5X523 19-139); experiment: BLI (OctetRED96); set-up for cynomolgus CD47 not described
T7 construct: also called cyno CD47; cynomolgus CD47

Binder	IC50 [1]	binding result [2]	binding result [3]	Kd [4]	Kd [5]	Kd [6]	Kd [7]	in vitro phagocytosis potency (ADCP of Nalm-6 cells), macrophage donor D#096 [8]	in vitro phagocytosis potency (ADCP of Nalm-6 cells), macrophage donor D#097 [8]	in vitro phagocytosis potency (ADCP of Nalm-6 cells), macrophage donor D#103 [8]	Kd [9]
B1	0.00252 nM	–	–	–	–	–	–	–	–	–	–
B2	–	no binding	no binding	–	–	–	–	–	–	–	–
B3	0.00219 nM	no binding	–	56 nM	0.5 nM	0.52 nM	1.35 nM	29.2	16	7.5	–
B4	0.00351 nM	no binding	binds	99 nM	–	–	–	99.2	94	23.5	–
B5	0.00083 nM	no binding	binds	13.6 nM	–	–	–	5.6	5	3.2	16 nM
